Measurements from US20230002480A1.

Key:
Assay in all cases: cell-based or functional assay
[1] = target: HIV-1 Env of pseudovirus C1080.c03 (clade CRF01_AE) (HIV-1)
[2] = target: HIV-1 Env pseudovirus C2101.c01 (HIV-1)
[3] = target: HIV-1 Env pseudovirus 89-F1_2_25 (HIV-1)
[4] = target: HIV-1 Env pseudovirus X2131_C1_B5 (HIV-1)
[5] = target: HIV-1 Env pseudovirus 3415.v1.c1 (HIV-1)
[6] = target: HIV-1 Env pseudovirus 3365.v2.c2 (HIV-1)
[7] = target: HIV-1 Env pseudovirus 9004SS_A3_4 (HIV-1)
[8] = target: HIV-1 Env pseudovirus A07412M1.vrc12 (HIV-1)
[9] = target: HIV-1 Env pseudovirus 191084 B7-19 (HIV-1)
[10] = target: HIV-1 Env pseudovirus 6540.v4.c1 (HIV-1)
[11] = target: HIV-1 Env pseudovirus T278-50 (HIV-1)
[12] = target: HIV-1 Env pseudovirus 928-28 (HIV-1)
[13] = target: HIV-1 Env pseudovirus 0260.v5.c36 (HIV-1)
[14] = target: HIV-1 Env pseudovirus 235-47 (HIV-1)
[15] = target: HIV-1 Env pseudovirus C3347.c11 (HIV-1)
[16] = target: HIV-1 Env pseudovirus CNE8 (HIV-1)
[17] = target: HIV-1 Env pseudovirus 620345.c01 (HIV-1)
[18] = target: HIV-1 Env pseudovirus BJOX025000.01.1 (HIV-1)
[19] = target: HIV-1 Env of pseudovirus AC10.0.29 (clade B) (HIV-1)
[20] = target: HIV-1 Env of pseudovirus CNE53 (clade BC) (HIV-1)
[21] = target: HIV-1 Env of pseudovirus TRO.11 (clade B) (HIV-1)
[22] = target: HIV-1 Env of pseudovirus SC05_8C11_2344 (clade B (T/F)) (HIV-1)
[23] = target: HIV-1 Env of pseudovirus Q259.d2.17 (clade A) (HIV-1)
[24] = target: HIV-1 Env of pseudovirus HIV-16845-2.22 (clade C) (HIV-1)
[25] = target: HIV-1 Env of pseudovirus Q842.d12 (clade A) (HIV-1)
[26] = target: HIV-1 Env of pseudovirus RHPA4259.7 (clade B) (HIV-1)
[27] = target: HIV-1 Env of pseudovirus Ce2060_G9 (clade C (T/F)) (HIV-1)
[28] = target: HIV-1 Env of pseudovirus HIV-0013095-2.11 (clade C) (HIV-1)
[29] = target: HIV-1 Env of pseudovirus Du172.17 (clade C) (HIV-1)
[30] = target: HIV-1 Env of pseudovirus 1054_07_TC4_1499 (clade B (T/F)) (HIV-1)
[31] = target: HIV-1 Env of pseudovirus Ce0682_E4 (clade C (T/F)) (HIV-1)
[32] = target: HIV-1 Env of pseudovirus Q23.17 (clade A) (HIV-1)

For PG16 (antibody), the IC50, titer in TZM.bl cells [1] was 0.001 µg/mL and the IC80, titer in TZM.bl cells [1] was 0.003 µg/mL.
N49P9.1 (antibody) gave an IC50 [2] of 0.085 µg/mL, an IC80 [2] of 0.227 µg/mL and an MPI [2] of 100. It also gave an IC50 [3] of over 50 µg/mL, an IC80 [3] of over 50 µg/mL and an MPI [3] of 23. For the same substance, the IC50 [4] was 0.143 µg/mL, the IC80 [4] was 0.476 µg/mL and the MPI [4] was 100. The IC50 [5] was 0.21 µg/mL, the IC80 [5] was 1.37 µg/mL and the MPI [5] was 100. It also gave an IC50 [6] of 0.055 µg/mL, an IC80 [6] of 0.725 µg/mL and an MPI [6] of 100. The IC50 [7] was 0.323 µg/mL, the IC80 [7] was 1.13 µg/mL and the MPI [7] was 100. For the same substance, the IC50 [8] was 0.189 µg/mL, the IC80 [8] was 0.947 µg/mL and the MPI [8] was 100. It also gave an IC50 [9] of 0.097 µg/mL, an IC80 [9] of 0.259 µg/mL and an MPI [9] of 100. For the same substance, the IC50 [10] was over 50 µg/mL, the IC80 [10] was over 50 µg/mL and the MPI [10] was 30. The IC50 [11] was over 50 µg/mL, the IC80 [11] was over 50 µg/mL and the MPI [11] was 5. The IC50 [12] was 0.163 µg/mL, the IC80 [12] was 0.695 µg/mL and the MPI [12] was 100. For the same substance, the IC50 [13] was 0.519 µg/mL, the IC80 [13] was 0.151 µg/mL and the MPI [13] was 100. For the same substance, the IC50 [14] was 0.045 µg/mL, the IC80 [14] was 0.352 µg/mL and the MPI [14] was 98. The IC50 [15] was 0.029 µg/mL, the IC80 [15] was 0.083 µg/mL and the MPI [15] was 100. For the same substance, the IC50 [16] was 0.228 µg/mL, the IC80 [16] was 0.921 µg/mL and the MPI [16] was 100. The IC50 [17] was over 50 µg/mL, the IC80 [17] was over 50 µg/mL and the MPI [17] was 7. For the same substance, the IC50 [18] was 0.131 µg/mL, the IC80 [18] was 0.67 µg/mL and the MPI [18] was 100.
N49P19 (antibody) gave an IC50 [2] of 0.978 µg/mL, an IC80 [2] of 4.19 µg/mL and an MPI [2] of 100. For the same substance, the IC50 [3] was over 50 µg/mL, the IC80 [3] was over 50 µg/mL and the MPI [3] was 7. The IC50 [4] was 2.52 µg/mL, the IC80 [4] was 14.4 µg/mL and the MPI [4] was 91. The IC50 [5] was 0.462 µg/mL, the IC80 [5] was 2.04 µg/mL and the MPI [5] was 100. For the same substance, the IC50 [6] was 0.579 µg/mL, the IC80 [6] was 2.09 µg/mL and the MPI [6] was 99. For the same substance, the IC50 [7] was 0.661 µg/mL, the IC80 [7] was 3.09 µg/mL and the MPI [7] was 100. It also gave an IC50 [8] of 3.89 µg/mL, an IC80 [8] of 48.8 µg/mL and an MPI [8] of 80. It also gave an IC50 [9] of 0.357 µg/mL, an IC80 [9] of 1.34 µg/mL and an MPI [9] of 100. It also gave an IC50 [10] of 11.2 µg/mL, an IC80 [10] of over 50 µg/mL and an MPI [10] of 63. For the same substance, the IC50 [11] was over 50 µg/mL, the IC80 [11] was over 50 µg/mL and the MPI [11] was 35. The IC50 [12] was 2.73 µg/mL, the IC80 [12] was 9.63 µg/mL and the MPI [12] was 97. The IC50 [13] was 1.25 µg/mL, the IC80 [13] was 8.52 µg/mL and the MPI [13] was 99. For the same substance, the IC50 [14] was 0.44 µg/mL, the IC80 [14] was 3.23 µg/mL and the MPI [14] was 89. For the same substance, the IC50 [15] was 3.94 µg/mL, the IC80 [15] was 25.7 µg/mL and the MPI [15] was 87. For the same substance, the IC50 [16] was 0.772 µg/mL, the IC80 [16] was 4.84 µg/mL and the MPI [16] was 97. The IC50 [17] was over 50 µg/mL, the IC80 [17] was over 50 µg/mL and the MPI [17] was 0. The IC50 [18] was over 50 µg/mL, the IC80 [18] was over 50 µg/mL and the MPI [18] was 24.
For N49P9 (antibody), the IC50 [2] was 0.051 µg/mL, the IC80 [2] was 0.209 µg/mL and the MPI [2] was 100. For the same substance, the IC50 [3] was over 50 µg/mL, the IC80 [3] was over 50 µg/mL and the MPI [3] was 23. It also gave an IC50 [4] of 0.082 µg/mL, an IC80 [4] of 0.274 µg/mL and an MPI [4] of 100. For the same substance, the IC50 [5] was 0.137 µg/mL, the IC80 [5] was 0.502 µg/mL and the MPI [5] was 100. For the same substance, the IC50 [6] was 0.059 µg/mL, the IC80 [6] was 0.198 µg/mL and the MPI [6] was 100. The IC50 [7] was 0.175 µg/mL, the IC80 [7] was 0.751 µg/mL and the MPI [7] was 100. The IC50 [8] was 0.142 µg/mL, the IC80 [8] was 0.636 µg/mL and the MPI [8] was 100. The IC50 [9] was 0.042 µg/mL, the IC80 [9] was 0.129 µg/mL and the MPI [9] was 100. For the same substance, the IC50 [10] was over 50 µg/mL, the IC80 [10] was over 50 µg/mL and the MPI [10] was 49. It also gave an IC50 [11] of over 50 µg/mL, an IC80 [11] of over 50 µg/mL and an MPI [11] of 25. The IC50 [12] was 0.094 µg/mL, the IC80 [12] was 0.339 µg/mL and the MPI [12] was 100. It also gave an IC50 [13] of 0.466 µg/mL, an IC80 [13] of 1.85 µg/mL and an MPI [13] of 100. It also gave an IC50 [14] of 0.072 µg/mL, an IC80 [14] of 0.271 µg/mL and an MPI [14] of 98. The IC50 [15] was 0.023 µg/mL, the IC80 [15] was 0.065 µg/mL and the MPI [15] was 100. For the same substance, the IC50 [16] was 0.056 µg/mL, the IC80 [16] was 0.26 µg/mL and the MPI [16] was 100. The IC50 [17] was over 50 µg/mL, the IC80 [17] was over 50 µg/mL and the MPI [17] was 9. It also gave an IC50 [18] of 0.055 µg/mL, an IC80 [18] of 0.252 µg/mL and an MPI [18] of 100.
Work on N49P7.2 (antibody) yielded an IC50 [19] of 44.2 µg/mL, an IC80 [19] of over 50 µg/mL and an MPI [19] of 53. It also gave an IC50 [20] of 0.1 µg/mL, an IC80 [20] of 0.277 µg/mL and an MPI [20] of 100. For the same substance, the IC50 [21] was 0.113 µg/mL, the IC80 [21] was 0.306 µg/mL and the MPI [21] was 100. It also gave an IC50 [22] of 0.326 µg/mL, an IC80 [22] of 1.14 µg/mL and an MPI [22] of 100. The IC50 [23] was 38.5 µg/mL, the IC80 [23] was over 50 µg/mL and the MPI [23] was 54. The IC50 [24] was 3.91 µg/mL, the IC80 [24] was 18.2 µg/mL and the MPI [24] was 98. It also gave an IC50 [25] of 0.045 µg/mL, an IC80 [25] of 0.2 µg/mL and an MPI [25] of 100. It also gave an IC50 [26] of 0.1 µg/mL, an IC80 [26] of 0.289 µg/mL and an MPI [26] of 100. The IC50 [27] was 0.821 µg/mL, the IC80 [27] was 2.81 µg/mL and the MPI [27] was 100. For the same substance, the IC50 [28] was 0.183 µg/mL, the IC80 [28] was 0.931 µg/mL and the MPI [28] was 97. For the same substance, the IC50 [29] was 0.29 µg/mL, the IC80 [29] was 1.08 µg/mL and the MPI [29] was 100. For the same substance, the IC50 [30] was 2.04 µg/mL, the IC80 [30] was 10.7 µg/mL and the MPI [30] was 99. For the same substance, the IC50 [31] was 0.067 µg/mL, the IC80 [31] was 0.233 µg/mL and the MPI [31] was 100. It also gave an IC50 [32] of 0.051 µg/mL, an IC80 [32] of 0.2 µg/mL and an MPI [32] of 100.
